Molecular target: T1, PARP1 (poly (ADP-ribose) polymerase-1) (UniProt P09874 1-1014)
T1 construct: PARP1, bought from Trevigen; Commercial protein; catalogue number not given; source: bought: Trevigen
Assay: BLI; GST-E2F1 immobilised on GST biosensors; serial dilutions of PARP1; FortéBio BLItz instrument, global fitting
Settings: both partners purified

T1 sequence (P09874 whole entry): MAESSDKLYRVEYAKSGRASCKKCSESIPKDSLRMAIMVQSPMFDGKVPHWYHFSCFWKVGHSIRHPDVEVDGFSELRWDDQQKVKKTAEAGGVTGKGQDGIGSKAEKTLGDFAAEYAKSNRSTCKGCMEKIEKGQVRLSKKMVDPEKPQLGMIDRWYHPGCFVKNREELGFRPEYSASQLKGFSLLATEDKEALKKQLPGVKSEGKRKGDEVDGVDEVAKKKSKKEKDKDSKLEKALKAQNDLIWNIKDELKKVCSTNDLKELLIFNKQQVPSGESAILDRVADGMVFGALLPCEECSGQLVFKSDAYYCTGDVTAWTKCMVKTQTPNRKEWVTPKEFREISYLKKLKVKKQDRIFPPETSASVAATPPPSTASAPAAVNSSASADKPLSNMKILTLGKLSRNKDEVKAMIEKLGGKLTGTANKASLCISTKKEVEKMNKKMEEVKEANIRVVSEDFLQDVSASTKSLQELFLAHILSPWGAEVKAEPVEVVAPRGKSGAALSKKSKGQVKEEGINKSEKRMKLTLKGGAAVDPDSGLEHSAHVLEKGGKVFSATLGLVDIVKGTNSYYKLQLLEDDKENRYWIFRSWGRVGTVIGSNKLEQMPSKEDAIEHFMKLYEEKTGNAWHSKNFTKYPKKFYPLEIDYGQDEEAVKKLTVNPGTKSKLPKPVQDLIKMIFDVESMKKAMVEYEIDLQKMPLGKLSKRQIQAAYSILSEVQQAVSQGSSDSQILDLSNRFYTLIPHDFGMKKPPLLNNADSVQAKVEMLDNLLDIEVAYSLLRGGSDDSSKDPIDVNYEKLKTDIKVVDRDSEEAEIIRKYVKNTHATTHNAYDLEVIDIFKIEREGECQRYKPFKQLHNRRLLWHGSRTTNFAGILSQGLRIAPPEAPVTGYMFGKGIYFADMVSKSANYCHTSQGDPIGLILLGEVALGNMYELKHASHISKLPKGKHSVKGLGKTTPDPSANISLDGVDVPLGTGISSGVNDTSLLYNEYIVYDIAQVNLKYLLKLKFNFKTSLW

Kd: 22 µM
B1: Recombinant GST-hE2F1 (natural protein)
chain: not shown
notes: E2F1 transcription factor, human (hE2F1); also called GST-E2F1; source: recombinant, purified as described elsewhere [27]

— paper PMC7599842, “PARP1 Deficiency Reduces Tumour Growth by Decreasing E2F1 Hyperactivation: A Novel Mechanism in the Treatment of Cancer” (Cancers, 2020)
